Measurements from PMC8596624.

What was measured:
[1] = biological target: T1, WHTS, trimeric spike protein, wild-type (Wuhan) (SARS-CoV-2 (Wuhan), UniProt P0DTC2 14-1213); test: dot blot
[2] = biological target: T1, WHTS, trimeric spike protein, wild-type …; test: electrochemical impedance
[3] = biological target: T1, WHTS, trimeric spike protein, wild-type …; test: electrochemical impedance; remark: listed apart in the source
[4] = biological target: WH-S1, spike S1 subunit, wild-type (SARS-CoV-2 (Wuhan), UniProt P0DTC2 14-685); test: dot blot
[5] = biological target: T1, WHTS, trimeric spike protein, wild-type …; test: electrochemical impedance; remark: listed apart in the source

B1: DMC (ssDNA)
DNA: CTATATCCCTTTAAGCCTGTGGGTCCACGAATCTACCTCTTTTTTTTTTTTTTTTTTTTTTTTTTTTTTGCGTTCGGAGTGGGTCGTGCGGCGCGGGACGAGTGGTGT
- binding result [1]: no binding

B2: DSA1N5-SH (structured_DNA)
DNA: TTCCGGTTAATTTATGCTCTACCCGTCCACCTACCGGAATTTTTTTTTTTTTTTTTTTTTTTTTTTTTTACGGGTTTGGCGTCGGGCCTGGCGGGGGGATAGTGCGGTTTTT
modifications: 3' thiol (3ThioMC3-D)
- binding result [2]: binds

Binder: GCGTTCGGAGTGGGTCGTGCGGCGCGGGACGAGTGGTGT (ssDNA) [M5C]
- binding result [1]: no binding

Binder: ACGGGTTTGGCGTCGGGCCTGGCGGGGGGATAGTGCGGTTTTT (structured_DNA, 3' thiol (3ThioMC3-D)) [MSA5T-SH]
- binding result [3]: binds

B3: MSA5 (structured_DNA)
DNA: TTACGTCAAGGTGTCACTCCACGGGTTTGGCGTCGGGCCTGGCGGGGGGATAGTGCGGTGGAAGCATCTCTTTGGCGTG
- binding result [4]: binds

Binder: TTCCGGTTAATTTATGCTCTACCCGTCCACCTACCGGAA (structured_DNA) [MSA1T]
- Kd [1]: 11.9 ± 1.8 nM

Binder: CTATATCCCTTTAAGCCTGTGGGTCCACGAATCTACCTC (ssDNA) [M1C]
- binding result [1]: no binding

B4: MSA1 (structured_DNA)
DNA: TTACGTCAAGGTGTCACTCCCACTTTCCGGTTAATTTATGCTCTACCCGTCCACCTACCGGAAGCATCTCTTTGGCGTG
- binding result [4]: binds

Binder: TTCCGGTTAATTTATGCTCTACCCGTCCACCTACCGGAATTTT (structured_DNA, 3' thiol (3ThioMC3-D)) [MSA1T-SH]
- binding result [5]: binds
